Source: patent publication EP4420676A1 (Medizinische Hochschule Hannover, dated 2024)

B1: tpi010-A5 scFv (scFv)
scFv: EVQLVESGGGLVQPGGSLRLSCAASGFTVSSNYMSWVRQAPGKGLEWVSVIYSGGSTYYADSVKGRFTISRDNAKNSLYLQMNSLRAEDTAVYYCARGWTTFDYWGQGTLVTVSSGSASAPKLEEGEFSEARVQAVLTQPPSLSVSPRQTVTITCSGDQLGDRYVSWYQQKPGQSPMLVIYQDDRRPSGVPERFSGSNSGNTATLTIGGTQAMDQADYYCQTWDNSPVVFGGGTKLTVLGQPKAAPSVTLFPPSSAAAGSEQKLISEEDLSHHHHHH
notes: Soluble scFv produced in E. coli
B2: UK018-G9 scFv (scFv)
scFv: QVQLVQSGGGLVQPGGSLRLSCAASGFTFSSYSMSWVRQAPGKGLEWVLGITRGGNTFYADSVTGRFTISRDISKNTVFLQMDSLRVEDTAIYYCAKDWTMSGINVFDTWGQGTLVTVSSGSASAPKLEEGEFSEARVQAVLTQPPSVSGSPGQSVTISCTGTSSDVGAYNRVSWYQQPPGTAPKLMIYEVNNRPSGVPDRFSGSKSGNTASLTISGLQAEDEADYYCSSSTTSSTYVFGTGTKVTVLGQPKANPTVTLFPPSSAAAGSEQKLISEEDLSHHHHHH
notes: as for B1
B3: UK018-G3 scFv (scFv)
scFv: QVQLVQSGGGVVQPGRSLRLSCAASGFTFSSYGMHWVRQAPGKGLEWVAVISYDGSNKYYADSVKGRFTISRDNSKNTLYLQMNSLRAEDTAVYYCAKDRGAVAGTDWYFDLWGRGTLVTVSSGSASAPKLEEGEFSEARVSSELTQDPAVSVALGQTVRITCQGDSLRSYYASWYQQKPGQAPVLVIYGKNNRPSGIPDRFSGSSSGNTASLTITGAQAEDEADYYCNSRDSSGNHVVFGGGTKLTVLGQPKAAPSVTLFPPSSAAAGSEQKLISEEDLSHHHHHH
notes: as for B1

Tests used:
[1] = target: T1, murine DGCR2 expressed on HEK293T cells (mouse, UniProt P98154 25-548); test: flow cytometry, soluble scFv on transfected HEK293T cells, anti-His PE
T1 construct: Transiently expressed on HEK293T cells from a vector with eGFP downstream of a P2A site; also called mouse DGCR2; murine antigen
T1 sequence: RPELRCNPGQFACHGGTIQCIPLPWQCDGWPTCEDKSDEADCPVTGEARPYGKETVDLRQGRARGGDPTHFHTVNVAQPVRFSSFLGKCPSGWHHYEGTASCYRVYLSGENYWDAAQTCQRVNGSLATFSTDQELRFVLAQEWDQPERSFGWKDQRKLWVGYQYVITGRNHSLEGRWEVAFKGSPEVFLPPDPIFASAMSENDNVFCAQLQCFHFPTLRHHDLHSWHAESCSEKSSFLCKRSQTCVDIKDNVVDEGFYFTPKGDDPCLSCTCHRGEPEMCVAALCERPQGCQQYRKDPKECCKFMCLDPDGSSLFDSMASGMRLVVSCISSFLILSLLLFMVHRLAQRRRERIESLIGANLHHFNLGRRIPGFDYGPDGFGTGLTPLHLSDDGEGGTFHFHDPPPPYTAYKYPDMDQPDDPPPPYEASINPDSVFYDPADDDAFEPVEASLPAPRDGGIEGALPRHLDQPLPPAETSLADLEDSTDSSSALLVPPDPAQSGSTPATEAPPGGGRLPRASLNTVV

[2] = target: T2, human DGCR2 expressed on HEK293T cells (human, UniProt P98153 21-550); test: flow cytometry, soluble scFv on transfected HEK293T cells (figure legend)
T2 construct: Transiently expressed on HEK293T cells from a vector with eGFP downstream of a P2A site; also called human antigen; DiGeorge Syndrom Critical Region 2
T2 sequence: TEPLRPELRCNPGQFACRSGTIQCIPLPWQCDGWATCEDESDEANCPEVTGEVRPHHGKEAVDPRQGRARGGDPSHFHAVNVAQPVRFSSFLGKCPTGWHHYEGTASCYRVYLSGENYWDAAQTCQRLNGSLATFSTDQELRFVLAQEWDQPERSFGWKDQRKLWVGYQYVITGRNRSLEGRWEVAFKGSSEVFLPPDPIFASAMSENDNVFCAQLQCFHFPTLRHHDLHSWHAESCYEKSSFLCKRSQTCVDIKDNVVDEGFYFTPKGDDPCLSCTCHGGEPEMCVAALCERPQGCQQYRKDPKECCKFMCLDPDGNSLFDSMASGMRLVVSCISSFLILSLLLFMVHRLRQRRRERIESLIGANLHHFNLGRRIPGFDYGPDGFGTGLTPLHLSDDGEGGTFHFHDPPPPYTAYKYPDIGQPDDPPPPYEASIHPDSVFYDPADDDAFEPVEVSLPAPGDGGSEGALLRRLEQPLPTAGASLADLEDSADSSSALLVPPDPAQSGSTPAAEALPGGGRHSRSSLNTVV

[3] = target: T1, murine DGCR2 expressed on HEK293T cells; test: as above

Row | Binder | binding result [1] | binding result [2] | binding result [3]
1 | B1 | binds | binds | –
2 | B2 | – | binds | binds
3 | B3 | – | binds | binds
